Source: patent US8883734B2, “Proteasome-activating anti-aging peptides and compositions containing same” (ISP Investments Inc., priority 2009, dated 2014)
Ends that are not written are not given here.

Assays:
beta-galactosidase = conditions: 1% peptide, 3 times per week; keratinocytes aged 20 days in culture; X-gal staining
Experimental: These cells are maintained in culture in a special keratinocyte-SFM medium (Invitrogen) at 37° C. under a humidified atmosphere of 5% CO2. Aged NHK cells are obtained by performing a series of repeated sub-cultures. Briefly the cells are seeded in 75 cm^2 flasks, at low density and cultured from 5 to 10 days between 2 passages. […] The cells are then maintained under these conditions for 45 days.
A study of the antiaging effect of the active principle was carried out by evaluating the expression of the beta-galactosidase protein on experimentally aged keratinocytes in culture.
Keratinocytes experimentally aged in 8-well labteck are cultured and maintained for 20 days in the presence or not of 1% peptide of SEQ ID No. 6. The treatment is carried out 3 times per week by direct addition into the medium.
Untreated cells are maintained in culture for the same experiment time and will be used as controls. On the day of labeling, the cells are rinsed and fixed in a 2% glutaraldehyde-2% formaldehyde mixture for 3 minutes. The cells are then rinsed and 300 μl of 5-bromo-4-chloro-3 indolyl b-D-galactosidase, commonly called X-gal (substrate of beta-galactosidase), is applied. Incubation is carried out for 24 hours in the CO2 incubator, and then the cells are rinsed and the labteck is quickly mounted in a suitable medium. Observation is carried out by transmission microscope. […]

20S proteasome = biological target: T1, 20S proteasome (Homo sapiens, UniProt P28072+P28074+Q99436); test: Enzymatic activity of 20S proteasome on aged keratinocytes maintained in culture (AMC fluorogenic substrates); type: cell-based; conditions: 1% peptide in medium, renewed 3 times per week, 15 days culture
T1 construct: endogenous in cells; host or cells: experimentally aged normal human keratinocytes (NHK); crude cell lysate
Experimental: Experimentally aged keratinocytes maintained in culture for 15 days are treated with 1% of peptide SEQ ID No. 6. The enzymatic activities of 20S proteasome are then studied. In fact, 20S proteasome is the subunit responsible for enzymatic hydrolysis. Three enzymatic activities may be studied: Trypsin-like, chymotrypsin-like and peptidylglutamyl-peptide hydrolase (PGPH) activity. We are proposing to study these activities by a specific enzymatic assay of each activity.
The aged keratinocytes are maintained in culture for 15 days. The cell treatment is carried out by adding a solution at 1% of peptide SEQ ID No. 6 directly into the medium, renewed 3 times per week for the time of the experiment. The assay of each activity was carried out by using specific substrates labeled by a fluorescent compound 7-amido-4-methylcoumarin (AMC). After cleavage, the AMC excitation wavelength is 350 nm, the fluorescence is read at 440 nm. The fluorescence intensity is proportional to the quantity of fluorochrome obtained and consequently, this quantity is proportional to the quantity of hydrolyzed substrate.
The synthetic peptide Boc-Leu-Arg-Arg-AMC is specific for trypsin activity.
The synthetic peptide Suc-Leu-Leu-Val-Tyr-AMC (SEQ ID NO: 8) is specific for chymotrypsin activity.
The synthetic peptide Z-Leu-Leu-Glu-AMC is specific for peptidylglutamyl-peptide hydrolase activity.
The cells are detached from the support in an extraction buffer. Afterwards, the cells are sonicated for 1 minute at 4° C., and then centrifuged at 15000 g for 30 minutes at 4° C. The protein assay is carried out by the BCA kit (Pierce). After incubation of the cellular lysate with the synthetic substrate specific for the activity studied, fluorescence is read with the Synergy spectrophotometer (BIOTEK, Vermont, USA) at 440 nm.

Ki67 protein = test: Ki67 proliferation marker immunolabelling on experimentally aged keratinocytes in culture; type: cell-based, human; conditions: 1% peptide in medium; keratinocytes aged 20 days in culture; immunofluorescence
Experimental: A study of the activator effect of peptide SEQ ID No. 2 was carried out by evaluating the expression of the cellular proliferation marker protein on experimentally aged keratinocytes in culture. The analysis is carried out after 20 days of culture.
The keratinocytes are cultured for 20 days in a CO2 incubator at 37° C. under humidified atmosphere. The cells are treated directly by adding 1% peptide directly into the medium. Cells that are not treated but aged in the same manner are used as control cells. For experimental requirements, the cells are seeded in 8-well labteck, maintained in culture and treated in the same support until the day of labeling. On the day of immunolabelling, the cells are rinsed by using phosphate buffer and then fixed with cold methanol before labeling.
Immunolabelling is carried out by a rabbit anti-Ki67 antibody (Abcam) diluted to 1/1000th and a secondary antibody to 1/1000th coupled with an Alexa fluor monkey anti-rabbit fluorochrome (Molecular probes).
The slides are then mounted in a suitable medium and observed by epifluorescence microscope (Nikon Eclipse E E600).

Substance	beta-galactosidase activity in treated cells compared to untreated cells (beta-galactosidase)	trypsin-like activity of 20S proteasome, increase (20S proteasome; substrate Boc-Leu-Arg-Arg-AMC, p=0.033) [%]	chymotrypsin-like activity of 20S proteasome, increase (20S proteasome; substrate Suc-Leu-Leu-Val-Tyr-AMC, p=0.0477) [%]	peptidylglutamyl-peptide hydrolase activity of 20S proteasome, increase (20S proteasome; substrate Z-Leu-Leu-Glu-AMC, p=0.00053) [%]	Ki67 protein expression in aged and treated cells compared to untreated cells (Ki67 protein)
Arg-Lys-Gly-NH2 [SEQ ID No. 6]	strongly reduced	155.3	130	144.6	
Leu-Arg-Lys-Gly-Met-NH2 (LRKGM-NH2) [SEQ ID No. 2]					increased the Ki67 protein
